Laboratory results taken from patent US20050164163A1 (MEDICAL RESEARCH COUNCIL, published 2005).

Tests used:
[1] = biological target: T1, HSV-1 POL (UL30 protein, catalytic subunit of the HSV-1 DNA polymerase) (HSV-1, UniProt P04293 1-1235); assay: competition ELISA: peptide incubated with POL 15 min, then added to UL8-coated wells
T1 construct: mature; Purified from Sf cells infected with baculovirus AcUL30
T1 sequence (looked up): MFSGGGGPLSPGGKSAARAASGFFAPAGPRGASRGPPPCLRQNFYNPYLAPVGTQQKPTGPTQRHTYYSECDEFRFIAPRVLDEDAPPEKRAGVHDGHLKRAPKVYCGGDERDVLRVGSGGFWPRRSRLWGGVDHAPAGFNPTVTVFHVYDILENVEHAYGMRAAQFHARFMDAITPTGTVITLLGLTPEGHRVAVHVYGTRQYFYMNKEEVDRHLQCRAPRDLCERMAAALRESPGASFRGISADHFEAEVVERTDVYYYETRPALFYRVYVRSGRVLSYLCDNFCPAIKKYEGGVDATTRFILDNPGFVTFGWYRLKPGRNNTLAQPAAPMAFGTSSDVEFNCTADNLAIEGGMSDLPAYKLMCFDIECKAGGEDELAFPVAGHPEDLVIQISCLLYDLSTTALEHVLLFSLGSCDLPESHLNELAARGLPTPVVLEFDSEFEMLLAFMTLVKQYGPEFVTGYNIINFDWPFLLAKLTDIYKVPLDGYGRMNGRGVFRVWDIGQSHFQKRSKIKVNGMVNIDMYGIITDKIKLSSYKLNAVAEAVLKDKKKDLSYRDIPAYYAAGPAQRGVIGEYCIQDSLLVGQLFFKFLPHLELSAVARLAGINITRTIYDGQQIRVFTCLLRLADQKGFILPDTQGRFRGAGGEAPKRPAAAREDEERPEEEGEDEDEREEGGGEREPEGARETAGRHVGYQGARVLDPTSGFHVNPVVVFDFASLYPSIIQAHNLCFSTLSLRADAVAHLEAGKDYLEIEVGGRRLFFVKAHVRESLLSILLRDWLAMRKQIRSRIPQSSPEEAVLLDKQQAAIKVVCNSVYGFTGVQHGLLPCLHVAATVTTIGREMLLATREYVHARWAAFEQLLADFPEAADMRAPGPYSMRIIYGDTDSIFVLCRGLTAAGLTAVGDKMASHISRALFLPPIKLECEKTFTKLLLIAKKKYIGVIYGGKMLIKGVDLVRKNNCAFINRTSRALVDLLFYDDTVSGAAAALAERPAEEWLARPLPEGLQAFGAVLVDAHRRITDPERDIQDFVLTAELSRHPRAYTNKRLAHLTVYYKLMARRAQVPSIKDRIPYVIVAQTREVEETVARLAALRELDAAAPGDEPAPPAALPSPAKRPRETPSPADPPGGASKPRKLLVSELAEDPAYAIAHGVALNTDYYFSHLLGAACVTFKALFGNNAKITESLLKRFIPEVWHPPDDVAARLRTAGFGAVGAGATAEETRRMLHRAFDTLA

[2] = biological target: T1, HSV-1 POL (UL30 protein, catalytic …); assay: competition ELISA: peptide incubated with POL, then added to UL8-coated wells; average of independent experiments
[3] = biological target: T1, HSV-1 POL (UL30 protein, catalytic …); assay: competition ELISA of FIG. 7: peptide incubated with POL 15 min, then added to UL8-coated wells
[4] = biological target: T2, HCMV UL54 protein (HCMV DNA polymerase) (HCMV strain AD169, UniProt P08546 1-1242); assay: ELISA, UL102 coated (0 to 0.4 µg), UL54 added (0 to 0.6 µg), detected with antiserum 144
T2 construct: mature; Purified from Sf cells infected with AcUL54
T2 sequence: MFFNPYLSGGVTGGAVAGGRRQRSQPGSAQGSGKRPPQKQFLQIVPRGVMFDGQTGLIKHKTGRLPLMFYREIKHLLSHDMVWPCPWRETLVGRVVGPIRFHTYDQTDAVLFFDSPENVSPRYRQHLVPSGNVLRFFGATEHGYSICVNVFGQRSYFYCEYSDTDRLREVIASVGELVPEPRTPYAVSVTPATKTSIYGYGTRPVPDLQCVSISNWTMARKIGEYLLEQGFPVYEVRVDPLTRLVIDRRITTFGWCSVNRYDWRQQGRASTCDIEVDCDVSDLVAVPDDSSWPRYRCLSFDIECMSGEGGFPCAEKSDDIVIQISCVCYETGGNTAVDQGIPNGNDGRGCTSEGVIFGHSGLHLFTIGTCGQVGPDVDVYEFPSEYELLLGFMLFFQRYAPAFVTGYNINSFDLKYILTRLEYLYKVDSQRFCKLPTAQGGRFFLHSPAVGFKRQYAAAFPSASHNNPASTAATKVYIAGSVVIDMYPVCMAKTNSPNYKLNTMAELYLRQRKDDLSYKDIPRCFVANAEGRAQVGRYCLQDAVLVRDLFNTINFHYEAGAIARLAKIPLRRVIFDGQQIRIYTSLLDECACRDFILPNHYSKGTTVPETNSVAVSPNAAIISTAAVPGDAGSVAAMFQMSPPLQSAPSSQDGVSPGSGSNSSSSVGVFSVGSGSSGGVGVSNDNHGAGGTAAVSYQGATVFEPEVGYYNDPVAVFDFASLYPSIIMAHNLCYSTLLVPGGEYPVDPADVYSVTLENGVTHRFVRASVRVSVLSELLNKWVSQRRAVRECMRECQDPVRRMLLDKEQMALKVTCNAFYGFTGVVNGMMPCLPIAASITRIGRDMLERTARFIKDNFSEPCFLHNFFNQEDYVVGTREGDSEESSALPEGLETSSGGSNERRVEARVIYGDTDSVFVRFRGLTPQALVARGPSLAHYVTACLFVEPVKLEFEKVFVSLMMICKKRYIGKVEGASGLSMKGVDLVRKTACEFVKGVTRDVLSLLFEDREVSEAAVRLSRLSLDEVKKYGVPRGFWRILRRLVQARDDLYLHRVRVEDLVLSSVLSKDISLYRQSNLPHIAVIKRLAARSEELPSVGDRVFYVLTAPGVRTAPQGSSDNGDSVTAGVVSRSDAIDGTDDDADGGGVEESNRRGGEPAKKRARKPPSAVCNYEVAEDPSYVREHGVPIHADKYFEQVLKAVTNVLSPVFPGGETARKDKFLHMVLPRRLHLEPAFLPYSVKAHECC

B1: Peptide 5 (Table 2), UL8 residues 722-750 (peptide)
peptide: VFTGVLAGVWGEGGKFVYPFDDKMSFLFA
notes: Synthetic peptide, C-terminal 29 amino acids of HSV-1 UL8
B1: binds [1].

B2: Peptide 7 (Table 2), UL8 amino acids 719-738 (peptide)
peptide: IELVFTGVLAGVWGEGGKFV
notes: Synthetic 20-residue peptide from HSV-1 UL8
In the case of B2, the IC50 [2] is reported as 2250 nM and the IC50 [3] is reported as about 1000 nM.

B3: HCMV UL102 protein (other)
chain: MTAQPPLHHRHHPYTLFGTSCHLSWYGLLEASVPIVQCLFLDLGGGRAEPRLHTFVVRGDRLPPAEVRAVHRASYAALASAVTTDADERRRGLEQRSAVLARVLLEGSALIRVLARTFTPVQIQTDASGVEILEAAPALGVETAALSNALSLFHVAKLVVIGSYPEVHEPRVVTHTAERVSEEYGTHAHKKLRRGYYAYDLAMSFRVGTHKYVLERDDEAVLARLFEVREVCFLRTCLRLVTPVGFVAVAVTDEQCCLLLQSAWTHLYDVLFRGFAGQPPLRDYLGPDLFETGAARSFFFPGFPPVPVYAVHGLHTLMRETALDAAAEVLSWCGLPDIVGSAGKLEVEPCALSLGVPEDEWQVFGTEAGGGAVRLNATAFRERPAGGDRRWLLPPLPRDDGDGENNVVEVSSSTGGAHPPSDDATFTVHVRDATLHRVLIVDLVERVLAKCVRARDFNPYVRYSHRLHTYAVCEKFIENLRFRSRRAFWQIQSLLGYISEHVTSACASAGLLWVLSRGHREFYVYDGYSGHGPVSAEVCVRTVVDCYWRKLFGGDDPGPTCRVQESAPGVLLVWGDERLVGPFNFFYGNGGAGGSPLHGVVGGFAAGHCGGACCAGCVVTHRHSSGGGGSGVGDADHASGGGLDAAAGSGHNGGSDRVSPSTPPAALGGCCCAAGGDWLSAVGHVLGRLPALLRERVSVSELEAVYREILFRFVARRNDVDFWLLRFQPGENEVRPHAGVIDCAPFHGVWAEQGQIIVQSRDTALAADIGYGVYVDKAFAMLTACVEVWARELLSSSTASTTACSSSSVLSSALPSVTSSSSGTATVSPPSCSSSSATWLEERDEWVRSLAVDAQHAAKRVASEGLRFFRLNA
notes: mature; Purified from Sf cells infected with AcUL102; The 873-residue form follows Smith and Pari (1995)
B3: binds [4].
